Results published in article PMC12126530, “A low-complexity linker as a driver of intra- and intermolecular interactions in DNAJB chaperones” (Nature Communications, 2025).

B1: DNAJB1 JD (domain or fragment)
chain: not shown
notes: DNAJB1, construct truncated immediately after the J-domain; also called DNAJB1 1-67; JD of DNAJB1; source: E. coli BL21(DE3), purified (HisTrap, TEV cleavage, C18 reverse phase HPLC); not shown: His-tag, N-terminal, cleaved
B2: DNAJB1 JD-GF (domain or fragment)
chain: not shown
modifications: 15N-labelled; limits by convention: ends just before helix 5 (DNAJB6 helix 5 is 96-104, and DNAJB6 F91 aligns with DNAJB1 Y92, giving about 97-105); start as in PDB 6Z5N
B3: Fluorescently labelled DNAJB6 JD (with an additional C-terminal GSSC sequence) (domain or fragment)
chain: not shown
modifications: Fluorescein-5-Maleimide on the C-terminal cysteine
notes: DNAJB6 J-domain construct; not shown: His-tag, N-terminal, cleaved
B4: DNAJB1 JD-GF (domain or fragment)
chain: not shown
modifications: 15N-labelled; limits by convention: ends just before helix 5 (DNAJB6 helix 5 is 96-104, and DNAJB6 F91 aligns with DNAJB1 Y92, giving about 97-105); start as in PDB 6Z5N
B5: DNAJB6 JD (domain or fragment)
chain: not shown
notes: DNAJB6, construct truncated immediately after the J-domain; 15N-labelled for NMR; also called isolated JD of DNAJB6; DNAJB6 J-domain; source: E. coli BL21(DE3), purified (HisTrap, TEV cleavage, C18 reverse phase HPLC); not shown: His-tag, N-terminal, cleaved

How the values were obtained:
Conditions in all cases: both partners purified
[1] = molecular target: T1, Full-length Hsc70-T204A (ATPase deficient mutant) (human, UniProt P11142 1-646, T204A); assay: NMR 15N-CPMG relaxation dispersion and exchange-induced shifts; 15N-labelled JDP observed, unlabelled Hsc70-T204A added to a molar ratio of 0.1 (DNAJB6 JD-GF 200 uM, DNAJB6 JD 350 uM, DNAJB1 300 uM); 25 °C; 20 mM HEPES pH 7.0, 50 mM KCl, 2.5 mM MgCl2; ATP-regenerating system with 2.5 mM ATP; fit to a two-state binding model
T1 construct: Hsc70, the constitutively expressed cytosolic form of human Hsp70; full length with the ATPase-deficient mutation T204A; source: pET-15b vector, expression at 25 °C overnight, purified (StrepTactin, TEV cleavage, Superdex 200)

[2] = molecular target: T2, Full-length Hsc70-T204A (ATPase deficient mutant) (human, UniProt P11142 1-646, T204A); assay: NMR 15N-CPMG relaxation dispersion with exchange-induced shifts; 15N-labelled JDP (DNAJB6 JD-GF 200 μM, DNAJB6 JD 350 μM, DNAJB1 300 μM) with unlabelled Hsc70-T204A at a molar ratio of 0.1, ATP-regenerating system, 20 mM HEPES pH 7.0, 50 mM KCl, 2.5 mM MgCl2, 25 °C, 600, 800 and 950 MHz; fit to a 2-state model; kex = kon app + koff
T2 construct: Hsc70, the constitutively expressed cytosolic form of human Hsp70, full length, with T204A; 5 mM ATP in fluorescence polarisation; also called hydrolysis deficient Hsc70 mutant T204A; source: pET-15b vector, expressed at 25 °C overnight, purified (StrepTactin, TEV cleavage, Superdex 200)

[3] = molecular target: T1, Full-length Hsc70-T204A (ATPase …); assay: fluorescence polarisation; direct binding: Hsc70-T204A titrated into 300 nM fluorescein-labelled DNAJB6 JD; 25 °C; 20 mM HEPES pH 7.0, 50 mM KCl, 5 mM MgCl2, 5 mM ATP; four-point logistic fit, 1:1 model

Row | Binder | Kd [1] [µM] | Kd [2] [µM] | Kd [3] [µM] | koff [1] [s⁻¹] | kon [1] [M⁻¹ s⁻¹]
1 | B1 | ~450 | – | – | – | –
2 | B2 | – | ~300 | – | – | –
3 | B3 | – | – | 18 ± 6.5 | – | –
4 | B4 | 288 ± 13 | – | – | 1700 ± 40 | 5.91e+06
5 | B5 | 3.4 ± 1.1 | – | – | 2740 ± 51 | 8e+08
